The results in this text go back to the supplement of paper PMC10567573.

The nature of the series: protein stability index of a GFP-peptide fusion (GPS, HEK-293T) (PSI 1-6); higher = more stable. The following applies: c terminus: a fixed tail appended.

± gives the standard deviation.
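Also: 24-mer peptide tiles fused after GFP, lentivirally expressed, FACS-sorted into six equal bins by GFP/DsRed ratio, decoded by Illumina sequencing, PSI is the read-weighted mean bin number.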

Turning to KAFADPEVLRRLTSSVSCALDEAA [ANKRD17], the protein stability index runs as follows: (treatment: DMSO) 3.08 ± 0.34; (treatment: MLN4924 1 uM, 8 h) 3.18 ± 0.21.
In the case of ALALANSDSVHIEDAEAVEQLREA [ESRRA], the protein stability index runs as follows: (treatment: DMSO) 5.18 ± 0.3; (treatment: MLN4924 1 uM, 8 h) 5.26 ± 0.28.
In the same order, the values of TGEAARPHKGLNLHPLLSGRLGRW [PCDHGC5] are 2.77 ± 0.17 and 2.9 ± 0.23.
In the same order, the values of FDSHRLPGDCFLLLVLLLYAPVGF [AUP1] are 3.02 ± 0.62 and 3.15 ± 0.17.
The sequence KYEHELALRQTVEADVNGLRRVLD [KRT16] had a protein stability index (treatment: DMSO) of 3.98 ± 0.15 and a protein stability index (treatment: MLN4924 1 uM, 8 h) of 4.09 ± 0.15.
The matching figures for RPPTPLFIPAKTGKDVATQILEGE [RSPH3]: 4.82 ± 0.15 and 5.01 ± 0.11.
The matching figures for EILGIEPDREKGFHLDVEDYLSGV [TSN]: 3.27 ± 0.22 and 3.45 ± 0.41.
Consider ALVSAHSEWQRKLEAAEALLTLRN [DMRTC1], for which the protein stability index (treatment: DMSO) worked out at 3.44 ± 0.24 and the protein stability index (treatment: MLN4924 1 uM, 8 h) is 3.57 ± 0.17.
In the same order, the values of AMLDEISLMDLAIEEGFNPVQASQ [NFE2L1] are 3.53 ± 0.39 and 3.66 ± 0.2.
On to CSNSQEHGAHKHHPIEEAAEEHRE [TRIM43], for which the protein stability index is, setting by setting: (treatment: DMSO) 5.51 ± 0.34; (treatment: MLN4924 1 uM, 8 h) 5.37 ± 0.27.
The matching figures for PEGVNKLKISPVTLKEAYVQKLVK [TENT5C]: 2.94 ± 0.35 and 2.93 ± 0.41.
The matching figures for QDTLELESPSLTSTPVCSQKVVVT [MYBL2]: 4.59 ± 0.18 and 4.63 ± 0.11.
For EDQGRTRKRKQSGHSPARAGKQRM [DDIT3], the protein stability index is, setting by setting: (treatment: DMSO) 4.96 ± 0.27; (treatment: MLN4924 1 uM, 8 h) 4.96 ± 0.089.
In the same order, the values of FMLGLGTLLPWNFFMTATQYFTNR [SLC29A1] are 2.87 ± 0.55 and 3.13 ± 0.26.
The matching figures for TIEDEDTKVRKQEIIKVTEQLIEA [CAMK2A]: 5.27 ± 0.28 and 5.02 ± 0.25.
Take FPSSGRFWKLYIEAEVTILFYFFL [CSTF3]: the protein stability index came out at 2.87 ± 0.66 (treatment: DMSO) and 2.35 ± 0.9 (treatment: MLN4924 1 uM, 8 h).
On to GQRIRRGSIGVWHYICPRLGGIGF [SLC6A17], for which the protein stability index is, setting by setting: (treatment: DMSO) 2.23 ± 0.27; (treatment: MLN4924 1 uM, 8 h) 2.42 ± 0.2.
In the same order, the values of EADYEDDSKIAFLMQLQDIQYLTE [IQUB] are 3.3 ± 0.2 and 3.38 ± 0.57.
In the same order, the values of TLRLRENCVLSSSPNPFPEISRGE [ZNF8] are 3.61 ± 0.33 and 3.66 ± 0.33.
The matching figures for VVGDNAVGKTRLICARACNATLTQ [RHOBTB2]: 2.63 ± 0.17 and 2.67 ± 0.14.
Consider KGYNIWTGGPDACLRCWDQRTIMK [TLE6], for which the protein stability index was found to be 2.32 ± 0.18 (treatment: DMSO) and 2.45 ± 0.14 (treatment: MLN4924 1 uM, 8 h).
QSFGRLSLQPQQQQQRQRPPRPPP [N4BP2L1] yielded a protein stability index (treatment: DMSO) of 4.64 ± 0.2 and a protein stability index (treatment: MLN4924 1 uM, 8 h) of 4.6 ± 0.32.
In the case of QLLLGRLFRWPDLQHAVELKPLCG [SMAD6], the protein stability index by setting is: (treatment: DMSO) 2.12 ± 0.19; (treatment: MLN4924 1 uM, 8 h) 2.36 ± 0.17.
In the same order, the values of VAFRGLKGKKLYPVVSAVWGHCEI [SPSB1] are 2.62 ± 0.13 and 3.16 ± 0.071.
In the same order, the values of LPGSDVSGRLMGSPPVPGPSAALT [FBXO28] are 4.42 ± 0.16 and 4.6 ± 0.33.
In the same order, the values of YQLCRVQECPPDGRSFREEQCVSF [ADAMTSL2] are 2.92 ± 0.65 and 2.97 ± 0.32.
In the case of GDRPRWQRLLGEDKFQWLAGLAPP [ANKRD9], the protein stability index is 2.85 ± 0.35 (treatment: DMSO) and 2.7 ± 0.3 (treatment: MLN4924 1 uM, 8 h).
In the case of SYRTESAQRQACMYASSAPPSEPV [TBX5], the protein stability index (treatment: DMSO) was found to be 3.79 ± 0.16 and the protein stability index (treatment: MLN4924 1 uM, 8 h) was 4.07 ± 0.24.
In the case of LLATFPRRALAPPSAGFRCCAAPG [ANKRD9], the protein stability index is 2.47 ± 0.16 (treatment: DMSO) and 2.45 ± 0.14 (treatment: MLN4924 1 uM, 8 h).
The matching figures for SEFQAALSRKVAKLVHFLLLKYRA [MAGEA6]: 2.45 ± 0.56 and 2.13 ± 0.29.
With LFEDIVAREYYSEADASHCIQQIL [CAMK2A], the protein stability index amounted to 2.36 ± 0.069 (treatment: DMSO) and 2.62 ± 0.35 (treatment: MLN4924 1 uM, 8 h).
As for WVLEPVLEGWRPDQLYRRKKDNHA [ELOA2], the protein stability index reads like this: (treatment: DMSO) 2.51 ± 0.31; (treatment: MLN4924 1 uM, 8 h) 3.34 ± 0.14.
Take QISIYGVKILEPKTKEVQHNCQLH [GULP1]: the protein stability index reads like this: (treatment: DMSO) 2.58 ± 0.37; (treatment: MLN4924 1 uM, 8 h) 2.85 ± 0.39.
Consider LRFLLDQVQLGLRCCGAASYQDWQ [TSPAN10], for which the protein stability index (treatment: DMSO) was 3.05 ± 0.49 and the protein stability index (treatment: MLN4924 1 uM, 8 h) was determined as 3.22 ± 0.49.
Turning to MDNNRNLDLDSIIDEVRTQYEEIA [KRT71], the protein stability index was found to be 4.14 ± 0.26 (treatment: DMSO) and 4.13 ± 0.17 (treatment: MLN4924 1 uM, 8 h).
The matching figures for QLVLRTKEAFDTIQEQKVVLEENG [SASS6]: 4.45 ± 0.23 and 4.64 ± 0.46.
The matching figures for ACSEDSLFLRCSLRHKDEEEEDDD [DRICH1]: 5.32 ± 0.27 and 5.24 ± 0.16.
In the case of CPVWDIFDSDWYTSRNLIGGADII [RHOBTB3], the protein stability index reads like this: (treatment: DMSO) 3.26 ± 0.5; (treatment: MLN4924 1 uM, 8 h) 3.55 ± 0.26.
The sequence NLRVLVDCILRDTSEDLRLQCDAV [TEKT4] displayed a protein stability index (treatment: DMSO) of 2.64 ± 0.57 and a protein stability index (treatment: MLN4924 1 uM, 8 h) of 2.46 ± 0.29.
In the same order, the values of KRITASEALKHPWICQRSTVASMM [CAMK2D] are 2.61 ± 0.05 and 2.67 ± 0.27.
In the same order, the values of MTETDAFYKREMFDPAEKYKMDHR [CASP6] are 4.05 ± 0.25 and 4.1 ± 0.29.
In the same order, the values of QPQDVDLALDSGASLLHLAVEAGQ [RIPK4] are 4.44 ± 0.51 and 4.58 ± 0.71.
Sequence MIHRTRKQKYFYKGGLVWDENSSD [CLK3] yielded a protein stability index (treatment: DMSO) of 3.06 ± 0.22 and a protein stability index (treatment: MLN4924 1 uM, 8 h) of 3.06 ± 0.23.
SIDKDEEFAGSSPQSSKSTVVKSL [FAN1] showed a protein stability index (treatment: DMSO) of 5.165 ± 0.042 and a protein stability index (treatment: MLN4924 1 uM, 8 h) of 5.27 ± 0.27.
The matching figures for RELGRLRQQVTNHGRGTEVLLEEP [ZNF263]: 4.7 ± 0.39 and 4.58 ± 0.33.
In the same order, the values of NSQALLLHSSILTCTLLLLYSLAP [MFSD9] are 3.23 ± 0.12 and 3.08 ± 0.52.
The matching figures for TTREIRRQEAIYEMSRGEQDLIED [NET1]: 5.25 ± 0.16 and 5.13 ± 0.17.
For the sequence HLELTRKLQDLIKDVLRYGEEQLK [FCHO1], the protein stability index reads like this: (treatment: DMSO) 2.95 ± 0.52; (treatment: MLN4924 1 uM, 8 h) 2.71 ± 0.69.
In the case of WEGFIGGFFSTVVFGFIAAYVLSK [CDS1], the protein stability index (treatment: DMSO) came out at 2.55 ± 0.54 and the protein stability index (treatment: MLN4924 1 uM, 8 h) was 3.08 ± 0.15.
Turning to DRDREEEENRLREELRQEWEAKQE [FAM50A], the protein stability index is 5.45 ± 0.5 (treatment: DMSO) and 5.63 ± 0.16 (treatment: MLN4924 1 uM, 8 h).
As for FETHESDINSVRYYPSGDAFASGS [GNB5], the protein stability index worked out at 3.9 ± 0.25 (treatment: DMSO) and 3.94 ± 0.16 (treatment: MLN4924 1 uM, 8 h).
PPASPPADGSPPLLPPGEPPLLGT [ANKRD40]: the protein stability index is, setting by setting: (treatment: DMSO) 5.17 ± 0.26; (treatment: MLN4924 1 uM, 8 h) 5.42 ± 0.14.
For LKRLYRAPIDWIEEYTTGMADCIL [ALG2], the protein stability index runs as follows: (treatment: DMSO) 2.26 ± 0.68; (treatment: MLN4924 1 uM, 8 h) 2.28 ± 0.69.
As to GGGFAGGDGLLVGSEKVTMQNLND [KRT16], the protein stability index is, setting by setting: (treatment: DMSO) 4.72 ± 0.34; (treatment: MLN4924 1 uM, 8 h) 4.73 ± 0.1.
LNIVPRTKVVYLASETFNYSAIDR [PI4K2A]: the protein stability index turned out to be 2.28 ± 0.18 (treatment: DMSO) and 2.07 ± 0.2 (treatment: MLN4924 1 uM, 8 h).
In the same order, the values of LATQEPTDNQVRLRKRKEIREDRD [DLC1] are 5.41 ± 0.24 and 5.39 ± 0.16.
Regarding EYEAGRAGPGGGAERRRAGRLLLT [ESRRA], the protein stability index runs as follows: (treatment: DMSO) 4.23 ± 0.37; (treatment: MLN4924 1 uM, 8 h) 4.33 ± 0.18.
As to WNDSCGEDMEASDYELEDETRPAK [WEE1], the protein stability index by setting is: (treatment: DMSO) 5.41 ± 0.32; (treatment: MLN4924 1 uM, 8 h) 5.45 ± 0.17.
Consider MSLFSLYMVQDQHECILPFVQVKG [M1AP], for which the protein stability index reads like this: (treatment: DMSO) 2.43 ± 0.54; (treatment: MLN4924 1 uM, 8 h) 2.14 ± 0.56.
In the same order, the values of LVCHVMMGNLVMFRKDSVLNILIQ [INTS3] are 3.25 ± 0.47 and 3.33 ± 0.51.
The matching figures for TYGQPKQAPPADFIPAHVAFDKKV [EFHC1]: 3.81 ± 0.34 and 4.16 ± 0.061.
For EPSRSASEADSEAGELRKPTQEEW [PPEF2], the protein stability index was determined as 5.68 ± 0.33 (treatment: DMSO) and 5.81 ± 0.16 (treatment: MLN4924 1 uM, 8 h).
In the case of PLLQSIHQLDFVQVKASSPVPATP [TRIM9], the protein stability index is, setting by setting: (treatment: DMSO) 3.02 ± 0.18; (treatment: MLN4924 1 uM, 8 h) 3.2 ± 0.21.
The matching figures for GKHPKDKTEDENKQSFLDGGKGHH [TOR1AIP2]: 5.4 ± 0.34 and 5.55 ± 0.22.
The matching figures for GSSSLGFTSSPSPFSSSSPENVED [FCHO1]: 5.38 ± 0.2 and 5.29 ± 0.19.
The matching figures for DEKEQLIIPQVPLFNILAKFNGIT [USP39]: 2.54 ± 0.3 and 2.57 ± 0.31.
In the case of NRFEVTLEKSNKNFSKKIQQIHVV [VPS39], the protein stability index came to 2.36 ± 0.4 (treatment: DMSO) and 2.42 ± 0.22 (treatment: MLN4924 1 uM, 8 h).
In the case of ESNVSMASLGEKRDHHSTHYRASE [CHGB], the protein stability index was found to be 4.71 ± 0.27 (treatment: DMSO) and 4.79 ± 0.33 (treatment: MLN4924 1 uM, 8 h).
In the same order, the values of LTTEKQNFLLFDMTTHPLTNNNIK [GOLPH3] are 2.98 ± 0.18 and 3.09 ± 0.17.
The matching figures for FSIGLGPMPWLVLSEIFPGGIRGR [SLC2A12]: 2.29 ± 0.67 and 2.51 ± 0.5.
QKEVAGFVLNRLQYAIISEAWRLV [CRYL1]: the protein stability index (treatment: DMSO) turned out to be 3.43 ± 0.53 and the protein stability index (treatment: MLN4924 1 uM, 8 h) came out at 3.37 ± 0.27.
The matching figures for GKVEAQHILASAPTDRNLCHFQAL [PYCR3]: 2.7 ± 0.25 and 3.04 ± 0.31.
